{"source": "paper PMC12392098", "about": "“Predicting the DNA binding specificity of transcription factor mutants using family-level biophysically interpretable machine learning”", "binders": {"B1": {"name": "CAGCTG probe (dsDNA)", "DNA 1": "TAGCCAATAACTTCGTCCCTCAGCTGCATATAAGGAAGATCTAACCACCAATTTGG", "DNA 2": "CCAAATTGGTGGTTAGATCTTCCTTATATGCAGCTGAGGGACGAAGTTATTGGCTA"}}, "biological_target": "ASCL2 DBD wild type (human, UniProt Q99929 50-102)", "sequence (Q99929 50-102)": "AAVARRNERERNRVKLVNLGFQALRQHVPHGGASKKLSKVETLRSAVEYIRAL", "assay": "EMSA; preferred over CACGTG probe; 32P EMSA: ~50 nM probe, 0.5/1/2 uM protein, 30 min, reagents as in Feng et al., gel at 4 C; fluorescent EMSA: 5x buffer (50 mM Tris pH 7.5, 250 mM NaCl, 5 mM MgCl2, 20% glycerol, 2.5 mM DTT, 2.5 mM EDTA, 250 ug/ml poly(dI-dC), 1 mg/ml BSA) used at 1x plus half volume protein dialysis buffer (20 mM HEPES pH 7.9, 200 mM NaCl, 10% glycerol, 2 mM MgCl2), gel 0.5x TBE at 4 C", "details": "protein: recombinant; tags: N-terminal 6xHis; mScarlet fusion; chain copies: 2; label: 32P (SRI primer strand); blunt", "data": [{"binder": "B1", "values": [{"measurement": "binding result", "value": "binds"}]}]}
